The values below are quoted from earlier work in publication PMC8834348.

For series [1], the target named is flotillin 2 (Homo sapiens) (UniProt Q14254).
Series [2] deals with flotillin 1 (Homo sapiens) (UniProt O75955).
Chain of UniProt O75955 (O75955 whole entry): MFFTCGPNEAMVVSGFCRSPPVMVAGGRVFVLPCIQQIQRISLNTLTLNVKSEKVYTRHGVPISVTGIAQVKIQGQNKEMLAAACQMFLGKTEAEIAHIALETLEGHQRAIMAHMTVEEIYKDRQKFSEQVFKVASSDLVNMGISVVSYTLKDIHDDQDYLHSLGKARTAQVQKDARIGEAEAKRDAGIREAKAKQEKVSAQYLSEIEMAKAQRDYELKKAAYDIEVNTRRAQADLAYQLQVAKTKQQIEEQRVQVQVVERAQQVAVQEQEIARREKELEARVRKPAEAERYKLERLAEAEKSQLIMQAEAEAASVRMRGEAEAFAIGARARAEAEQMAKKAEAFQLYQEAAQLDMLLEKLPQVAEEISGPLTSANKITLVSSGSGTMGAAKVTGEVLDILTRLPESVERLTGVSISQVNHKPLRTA

Chain of UniProt Q14254 (Q14254 2-428): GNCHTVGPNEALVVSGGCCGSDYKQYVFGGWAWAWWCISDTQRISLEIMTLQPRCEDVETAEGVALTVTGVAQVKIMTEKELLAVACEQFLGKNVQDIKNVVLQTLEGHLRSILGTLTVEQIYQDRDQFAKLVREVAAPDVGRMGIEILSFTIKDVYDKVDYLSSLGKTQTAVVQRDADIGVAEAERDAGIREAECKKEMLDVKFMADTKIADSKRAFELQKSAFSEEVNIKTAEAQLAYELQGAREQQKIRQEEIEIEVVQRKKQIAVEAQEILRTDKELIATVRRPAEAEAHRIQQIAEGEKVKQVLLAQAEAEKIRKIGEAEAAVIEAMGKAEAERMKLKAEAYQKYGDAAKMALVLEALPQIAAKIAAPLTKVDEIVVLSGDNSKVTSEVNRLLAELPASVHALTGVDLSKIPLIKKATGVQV

As for MPP1 D5 domain (from UniProt Q00013), the dissociation constant (Kd) in series [1] and in series [2] was 30 nM each time.

Usually Kd stands for a measure of binding affinity in units of concentration.
